Eleven molecules from patent publication US20230050440A1 can be followed below.

Residue numbers refer to the chain shown, from its start.

As usually defined, the Kd is the equilibrium constant for the complex coming apart. In general, EC50 refers to the concentration at which the effect is half-maximal. High values mean a less potent agent, low ones a more potent agent.

Sequences and labels used below:
B1: Clone 16D (antibody, V domains shown)
VH: QVQLVQSGAEVKKPGSSVKVSCKASGGTFSDYPISWVRQAPGQGLEWMGGIIPIVGGANYAQKFQGRVTITADESTSTAYMELSSLRSEDTAVYYCTRQSTWHKLFGTDVWGQGTTVTVSS
VL: DIQMTQSPSSVSASVGDRVTITCRASQGISSWLAWYQQKPGKAPKLLIYAASSLQSGVPSRFSGSGSGTDFTLTISSLQPEDFATYYCQQGDSLPPTFGGGTKVEIK
B2: Clone 16E (antibody, V domains shown)
VH: B1 VH with T97A, L105V, F106Y
VL: B1 VL
B3: Clone 16C (antibody, V domains shown)
VH: B1 VH with S30R, D31E, P33A, I52H, V55F, G57T, N59R, F106Y
VL: B1 VL
B4: Clone 25 (antibody, V domains shown)
VH: QVQLVQSGAEVKKPGASVKVSCKASGYTFTSYAISWVRQAPGQGLEWMGWISAYNGNTNYAQKLQGRVTMTTDTSTSTAYMELRSLRSDDTAVYYCARDLSSFWSGDVLGAFDIWGQGTMVTVSS
VL: DIQMTQSPSSLSASVGDRVTITCRASQSISSYLNWYQQKPGKAPKLLIYAASSLQSGVPSRFSGSGSGTDFTLTISSLQPEDFATYYCQQSVPPRTFGGGTKVEIK
B5: Clone 25C (antibody, V domains shown)
VH: B4 VH with A33P, S35G, A53S, D99G, L100A
VL: B4 VL
B6: Clone 25B (antibody, V domains shown)
VH: B4 VH with A33P, S35G, A53S
VL: B4 VL
B7: Clone 25E (antibody, V domains shown)
VH: B4 VH with S35A, D99S, L100G
VL: B4 VL
B8: Clone 25D (antibody, V domains shown)
VH: B4 VH with A33P, S35G, A53S, S101K
VL: B4 VL
B9: Clone 25A (antibody, V domains shown)
VH: B4 VH with N59K
VL: B4 VL
B10: Clone 22 (antibody, V domains shown)
VH: QVQLQESGPGLVKPSETLSLTCAVSGYSISSGYYWAWIRQPPGKGLEWIGSIYHSGSTYYNPSLKSRVTISVDTSKNQFSLKLSSVTAADTAVYYCARQGYYYGSSGSVDFDLWGRGTLVTVSS
VL: DIQMTQSPSSVSASVGDRVTITCRASQGISSWLAWYQQKPGKAPKLLIYAASNLQSGVPSRFSGSGSGTDFTLTISSLQPEDFATYYCQQANSLPPWTFGGGTKVEIK
B11: Clone 18 (antibody, V domains shown)
VH: QVQLVQSGAEVKKPGASVKVSCKASGYTFTSYYMSWVRQAPGQGLEWMGIINPSGGSTSYAQKFQGRVTMTRDTSTSTVYMELSSLRSEDTAVYYCARVRYGYADGMDVWGQGTTVTVSS
VL: B1 VL with V11L, G28S, W32Y, A34N, A50G, G91V, D92Y, S93H, P96F

Chain of dimeric mouse TIGIT-Fc (R&D Systems, 7267-TG) (mouse) (P86176 other isoform, or with tags, fused parts or gaps limits assumed, form in doubt): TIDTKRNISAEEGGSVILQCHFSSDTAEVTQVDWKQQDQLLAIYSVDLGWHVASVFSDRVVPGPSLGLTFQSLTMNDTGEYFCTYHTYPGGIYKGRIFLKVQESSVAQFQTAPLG

For one experiment, the target named is mouse TIGIT expressed on cells (mouse) (UniProt P86176). In words: flow cytometry on HEK 293 cells expressing the target, MFI over parental HEK 293.
Chain of mouse TIGIT expressed on cells (mouse) (P86176 other isoform, or with tags, fused parts or gaps limits assumed, form in doubt): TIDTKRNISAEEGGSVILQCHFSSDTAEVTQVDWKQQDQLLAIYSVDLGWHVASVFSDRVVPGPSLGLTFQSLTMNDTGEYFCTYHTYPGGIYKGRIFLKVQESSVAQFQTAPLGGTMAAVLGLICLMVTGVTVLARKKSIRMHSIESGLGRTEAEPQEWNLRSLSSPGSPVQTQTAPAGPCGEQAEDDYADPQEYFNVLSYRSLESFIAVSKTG
With B1, the FOB (Fold Over Background) was 63 fold.
Take B2: the FOB (Fold Over Background) was 56 fold.
Same read-out and setting: then B3, with 99 fold.
Consider B4, for which the FOB (Fold Over Background) came to 117 fold.
On the same count and under the same terms, then B5, with 124 fold.
In the case of B6, the FOB (Fold Over Background) is 129 fold.
The same measure, in the same setting: the value for B7 was 116 fold; that for B8 was 137 fold; that for B9 was 119 fold.

Another experiment has as its target dimeric mouse TIGIT-Fc (R&D Systems, 7267-TG) (mouse) (UniProt P86176). In words: BLI (ForteBio Octet RED384), IgG on AHQ sensor, 100 nM antigen, 1:1 model.
Molecule B10 came in with a Kd of 10.5 nM. That is a double-digit nanomolar value.
On to B11, for which the Kd was 8.82 nM.
In the case of B4, the Kd worked out at 1.1 nM.

Another experiment concerns the target mouse TIGIT expressed on cells (mouse) (UniProt P86176). In words: flow cytometry, titration on activated mouse splenic T cells. (In general: In flow cytometry, cells or beads pass a laser one at a time.)
On to B4, for which the EC50 was 2.28 µg/mL.

The next experiment concerns the target dimeric mouse TIGIT-Fc (R&D Systems, 7267-TG) (mouse) (UniProt P86176). In words: BLI (ForteBio), IgG on sensor, avid. (In general: In BLI a coated tip is dipped into the sample, and binding shifts an interference pattern.)
With B1, the Kd stood at 2.63 nM.
On the same count and under the same terms, the value for B2 was 3.7 nM; that for B3 was 0.801 nM.
Same read-out and setting: the value for B4 was 0.967 nM.
Consider B5, for which the Kd worked out at 0.494 nM. This Kd lies about 2-fold lower than the previous one.
For the molecule B6, the Kd stood at 0.719 nM.
Consider B7, for which the Kd worked out at 0.566 nM.
On to B8, for which the Kd turned out to be 0.58 nM.
On the same count and under the same terms, the value for B9 was 0.823 nM.

A further experiment addresses mouse TIGIT expressed on cells (mouse) (UniProt P86176). In words: flow cytometry titration, HEK 293 cells expressing mouse TIGIT.
In turn, B4 displayed an EC50 of 0.24 µg/mL.
